# B1: Maternal protein pumilio (Drosophila melanogaster (Fruit fly)), P25822 (parent)
# chain: MKFLGGNDDRNGRGGVGVGTDAIVGSRGGVSQDAADAAGAAAAAAVGYVFQQRPSPGGVGVGVGGVGGGVPGVGAVGSTLHEAAAAEYAAHFAQKQQQTRWACGDDGHGIDNPDKWKYNPPMNPANAAPGGPPGNGSNGGPGAIGTIGMGSGLGGGGGGGAGGGNNGGSGTNGGLHHQSMAAAAANMAAMQQAAALAKHNHMISQAAAAVAAQQQHQHPHQQHPQQQQQQQQAQNQGHPHHLMGGGNGLGNGNGLGIQHPGQQQQQQQQQQQQQHPGQYNANLLNHAAALGHMSSYAQSGGSMYDHHGGAMHPGMNGGMPKQQPLGPPGAGGPQDYVYMGGQTTVPMGAAMMPPQNQYMNSSAVAAANRNAAITTSTAKKLWEKSDGKGVSSSTPGGPLHPLQIPGIGDPSSVWKDHTWSTQGENILVPPPSRAYAHGGASDTSNSGNAGILSPRDSTCAKVVEYVFSGSPTNKDSSLSGLEPHLRNLKFDDNDKSRDDKEKANSPFDTNGLKKDDQVTNSNGVVNGIDDDKGFNRTPGSRQPSPAEESQPRPPNLLFPPLPFNHMLMDHGQGMGGGLGGVVGSGNGVGGGSGGGGAGGAYAAHQQMAAQMSQLQPPMMNGVGGGMPMAAQSPMLNHQAAGPNHMESPGNLLQQQNFDVQQLFRSQNPGLAAVATNAAAAAAAAAAATSAASAAAAVGAPPVPNGSLQQSQQQQQQQQQQQQQQQMHMAAASQQFLAAQQQAQNAAYAAQQATSYVINPGQEAAPYMGMIAAAQMPYYGVAPWGMYPGNLIPQQGTQPRRPLTPSQQGAENQPYQVIPAFLDHTGSLLMGGPRTGTPMRLVSPAPVLVPPGATRAGPPPPQGPQLYQPQPQTAQQNLYSQQNGSSVGGLALNTSSLTGRRDSFDRSTSAFSPSTMDYTSSGVAAAANAVNSTVAQAAAAAAAAAAARGKWPGAMSGAASGAYGALGAGNASASPLGAPITPPPSAQSCLLGSRAPGAESRQRQQQQQQLAAVGLPATAAAAQAAVAAAANNMFGSNSSIFSNPLAIPGTAAVAAAAAAAAAANSRQVAATAAAAAAVAAAAGGVGGAPQPGRSRLLEDFRNQRYPNLQLRDLANHIVEFSQDQHGSRFIQQKLERATAAEKQMVFSEILAAAYSLMTDVFGNYVIQKFFEFGTPEQKNTLGMQVKGHVLQLALQMYGCRVIQKALESISPEQQQEIVHELDGHVLKCVKDQNGNHVVQKCIECVDPVALQFIINAFKGQVYSLSTHPYGCRVIQRILEHCTAEQTTPILDELHEHTEQLIQDQYGNYVIQHVLEHGKQEDKSILINSVRGKVLVLSQHKFASNVVEKCVTHATRGERTGLIDEVCTFNDNALHVMMKDQYANYVVQKMIDVSEPTQLKKLMTKIRPHMAALRKYTYGKHINAKLEKYYMKITNPITVGTGAGGVPAASSAAAVSSGATSASVTACTSGSSTTTTSTTNSLASPTICSVQENGSAMVVEPSSPDASESSSSVVSGAVNSSLGPIGPPTNGNVVL
# partner: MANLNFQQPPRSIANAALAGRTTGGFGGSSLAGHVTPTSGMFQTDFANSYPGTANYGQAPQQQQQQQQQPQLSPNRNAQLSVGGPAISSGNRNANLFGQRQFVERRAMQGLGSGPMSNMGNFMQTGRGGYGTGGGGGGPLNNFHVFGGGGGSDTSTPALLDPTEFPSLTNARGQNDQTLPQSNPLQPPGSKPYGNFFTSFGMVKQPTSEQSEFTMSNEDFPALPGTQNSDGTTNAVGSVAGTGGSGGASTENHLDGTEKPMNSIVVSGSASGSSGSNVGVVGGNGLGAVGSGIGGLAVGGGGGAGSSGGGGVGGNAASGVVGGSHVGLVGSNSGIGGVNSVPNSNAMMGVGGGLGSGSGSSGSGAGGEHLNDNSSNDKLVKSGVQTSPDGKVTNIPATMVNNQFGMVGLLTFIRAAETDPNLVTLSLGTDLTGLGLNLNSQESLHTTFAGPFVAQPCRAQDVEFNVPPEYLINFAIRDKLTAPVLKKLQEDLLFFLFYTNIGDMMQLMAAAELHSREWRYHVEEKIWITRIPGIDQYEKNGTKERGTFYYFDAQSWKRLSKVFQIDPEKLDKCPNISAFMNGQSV
# Variants of: B1
# Conditions: with rga_drome Rga
row,Variant,effect of a mutation on the interaction
1,F1033A,with no effect
2,F1033A;F1040A,decreasing interaction strength
3,F1040A,with no effect

# Variants of: B1
# Conditions: with rga_drome Rga
# Remark: another data set of the same source
row,Variant,effect of a mutation on the interaction
1,F1033A;F1040A,decreasing interaction strength
